This note sets out measurements from article PMC9332313, “Folding and Binding Mechanisms of the SH2 Domain from Crkl” (Biomolecules, 2022).

For orientation: koff means the first-order rate constant of dissociation. The low end stands for a long-lived complex, the high end for a short-lived complex. By pKa is commonly meant the pH at which an ionisable group is half protonated.

Series [1] deals with dansylated Pax_(112–123) peptide (Dans-GEEEHV-pY-SFPNK). The series can be described thus: stopped-flow fluorescence displacement kinetics (FRET); complex of 2 µM H60A mutant and 20 µM dansyl-Pax112-123 mixed with excess non-dansylated Pax112-123 (40 μM); 283 K; pH 5.5.
For series [2] the target is unchanged. Nature of the series: stopped-flow fluorescence displacement kinetics (FRET); complex of 2 µM H60A mutant and 20 µM dansyl-Pax112-123 mixed with excess non-dansylated Pax112-123 (40 μM); 283 K; pH 7.5.
Series [3] has the same target. Nature of the series: stopped-flow fluorescence displacement kinetics (FRET); complex of 2 µM H60A mutant and 20 µM dansyl-Pax112-123 mixed with excess non-dansylated Pax112-123 (40 μM); 283 K; pH 6.8.
A further series has as its target His60 (UniProt position 60, NSRVSHYIINS). The series can be described thus: kinetics (stopped-flow fluorescence binding and displacement). The note with it: 283 K; 0.5 M NaCl plus 50 mM buffer; 50 mM sodium-acetate pH 5.0 and 5.5; 50 mM BisTRIS pH 6.0 and 6.8; 50 mM sodium-HEPES pH 7.5; 50 mM TrisHCl pH 8.0, 8.5 and 9.0; Binding reaction with dansyl-Pax112-123 phosphopeptide. The pKa comes from both association and dissociation rate constants, so no free or bound state is specified.

In the case of “SH2 domain of Crkl protein (residues 1-111), H60A variant (from UniProt P46109 1-111) (domain or fragment)”, the dissociation rate constant (koff) in series [1] amounted to 212 s⁻¹; in series [2], 237 s⁻¹; in series [3], 152 s⁻¹.
“Crk-like protein (Crkl) SH2 domain (Homo sapiens (inferred; not stated in the article))”: the pKa in the series with His60 amounted to 7.1 ± 0.2.
